Test results published in patent publication US20090202556A1 (Kyowa Kirin, published 2009).
Blank lines part the entries; values can stand above or below the binder they belong to.

How the values were obtained:
[1] = biological target: T1, CLDN6-myc/His (fusion protein in which myc/His was added to the C-terminal of human CLDN6), expressed in CHO … (human, UniProt P56747 1-220); experiment: FCM on live CLDN6/CHO cells
T1 chain: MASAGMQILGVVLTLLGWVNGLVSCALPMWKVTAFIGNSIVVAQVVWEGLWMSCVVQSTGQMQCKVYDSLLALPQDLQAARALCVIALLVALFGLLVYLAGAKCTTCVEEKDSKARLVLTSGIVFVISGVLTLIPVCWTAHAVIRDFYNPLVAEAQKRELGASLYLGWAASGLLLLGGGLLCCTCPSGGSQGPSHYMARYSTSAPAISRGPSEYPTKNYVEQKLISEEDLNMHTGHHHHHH
Protocol: (§1) Each of CLDN3/CHO, CLDN4/CHO, CLDN5/CHO, CLDN6/CHO and CLDN9/CHO was cultured for 3 to 4 days and peeled off using 0.02% EDTA solution (manufactured by Nacalai Tesque), and the recovered cells were washed with PBS and, in order to avoid nonspecific adsorption of antibodies, blocked at ice temperature for 30 minutes. The cells were dispensed at 1 to 5×10⁵ cells/100 μl BSA-PBS into a 96-well U bottom plate and centrifuged (1,500 rpm, 5 minutes), the supernatant was removed and then a mouse anti-serum to be immunized, a culture supernatant of hybridoma KM3900 (8.6 μg/ml), anti-CLDN4 monoclonal antibodies KM3900 and KM3907 diluted to 5 μg/ml and a mouse IgG2a isotype control (manufactured by DAKO) were dispensed as the primary antibodies at 100 μl/well and allowed to react at ice temperature for 60 minutes. After the reaction and then washing with BSA-PBS once, FITC-labeled anti-mouse immunoglobulin G (H+L) (manufactured by DAKO) diluted 50-fold with BSA-PBS was added thereto as the secondary antibody at 100 μl/well and allowed to react at ice temperature for 30 minutes under shading. After washing again once with BSA-PBS and subsequently suspending in PBS, the fluorescent intensity was measured by FCM (manufactured by Beckman Coulter).

[2] = biological target: T2, CLDN9-myc/His (fusion protein in which myc/His was added to the C-terminal of human CLDN9), expressed in CHO … (human, UniProt O95484 1-217); experiment: FCM on live CLDN9/CHO cells
T2 sequence: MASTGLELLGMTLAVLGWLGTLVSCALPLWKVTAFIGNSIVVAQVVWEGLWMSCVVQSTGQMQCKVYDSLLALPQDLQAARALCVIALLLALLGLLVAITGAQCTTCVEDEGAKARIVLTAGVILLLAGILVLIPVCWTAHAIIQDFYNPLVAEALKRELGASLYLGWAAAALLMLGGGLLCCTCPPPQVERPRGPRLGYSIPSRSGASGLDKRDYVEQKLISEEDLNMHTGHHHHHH
Protocol: as §1

[3] = biological target: T3, CLDN4-myc/His (fusion protein in which myc/His was added to the C-terminal of human CLDN4), expressed in CHO … (human, UniProt O14493 1-209); experiment: FCM on live CLDN4/CHO cells
T3 construct: On live cells in FCM; as cell extract in Western blotting (denatured) and immunoprecipitation (Triton X-100 lysate); also called CLDN4-myc/His gene-introduced CHO cell
T3 sequence: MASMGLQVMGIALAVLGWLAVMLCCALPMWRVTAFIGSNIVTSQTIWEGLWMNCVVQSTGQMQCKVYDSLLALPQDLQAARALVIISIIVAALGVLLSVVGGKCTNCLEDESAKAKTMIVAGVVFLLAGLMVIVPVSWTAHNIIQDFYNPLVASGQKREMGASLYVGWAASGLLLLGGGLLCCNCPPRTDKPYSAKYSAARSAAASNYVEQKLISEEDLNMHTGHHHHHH
Protocol: as §1

[4] = biological target: T4, 4-EL1/6-EL2 (CLDN4-CLDN6 fusion protein: EL1 of CLDN4, EL2 of CLDN6, myc/His at the C-terminal side), … (human); experiment: FCM on live 4-EL1/6-EL2/CHO cells
T4 chain: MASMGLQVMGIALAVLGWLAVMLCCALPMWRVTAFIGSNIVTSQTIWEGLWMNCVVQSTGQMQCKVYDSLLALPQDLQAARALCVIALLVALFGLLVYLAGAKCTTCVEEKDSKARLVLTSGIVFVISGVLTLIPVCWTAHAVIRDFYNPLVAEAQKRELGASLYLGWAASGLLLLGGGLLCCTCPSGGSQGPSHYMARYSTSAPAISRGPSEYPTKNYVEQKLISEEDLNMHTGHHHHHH

[5] = biological target: T5, CLDN3-myc/His (fusion protein in which myc/His was added to the C-terminal of human CLDN3), expressed in CHO … (human, UniProt O15551 1-220); experiment: FCM on live CLDN3/CHO cells
T5 construct: also called CLDN3-myc/His gene-introduced CHO cell; not shown: C-terminal myc/His tag
T5 sequence: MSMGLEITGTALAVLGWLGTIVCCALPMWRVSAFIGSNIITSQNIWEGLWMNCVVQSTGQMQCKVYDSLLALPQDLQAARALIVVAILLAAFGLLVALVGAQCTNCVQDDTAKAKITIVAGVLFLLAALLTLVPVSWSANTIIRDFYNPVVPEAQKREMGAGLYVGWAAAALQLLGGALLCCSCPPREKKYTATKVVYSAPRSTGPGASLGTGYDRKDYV
Protocol: as §1

[6] = biological target: T6, CLDN5-myc/His (fusion protein in which myc/His was added to the C-terminal of human CLDN5), expressed in CHO … (human, UniProt O00501 1-218); experiment: FCM on live CLDN5/CHO cells
T6 sequence: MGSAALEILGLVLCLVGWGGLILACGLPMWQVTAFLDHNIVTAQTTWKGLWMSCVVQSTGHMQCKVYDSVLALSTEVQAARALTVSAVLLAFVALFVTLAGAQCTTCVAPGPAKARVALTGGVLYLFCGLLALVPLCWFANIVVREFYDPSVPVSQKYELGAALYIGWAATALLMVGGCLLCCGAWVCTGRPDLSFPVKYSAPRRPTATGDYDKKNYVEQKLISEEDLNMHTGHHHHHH
Protocol: as §1

[7] = biological target: T7, 6-EL1/4-EL2 (CLDN4-CLDN6 fusion protein: EL1 of CLDN6, EL2 of CLDN4, myc/His at the C-terminal side), … (human); experiment: FCM on live 6-EL1/4-EL2/CHO cells
T7 chain: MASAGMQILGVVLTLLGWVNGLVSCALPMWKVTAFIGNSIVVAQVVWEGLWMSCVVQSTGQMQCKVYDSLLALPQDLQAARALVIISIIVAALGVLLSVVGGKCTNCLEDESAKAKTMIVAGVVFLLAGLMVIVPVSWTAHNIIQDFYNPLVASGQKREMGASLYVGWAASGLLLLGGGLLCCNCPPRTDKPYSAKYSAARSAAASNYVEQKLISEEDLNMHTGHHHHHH

- binding result [1]: no binding (tested: 5 µg/ml)
- binding result [2]: no binding (tested: 5 µg/ml)
- binding result [3]: binds
- binding result [4]: binds
- binding result [5]: binds
- binding result [6]: no binding (tested: 5 µg/ml)
- binding result [7]: no binding
B1: anti-CLDN4 monoclonal antibody KM3907 produced by hybridoma KM3907 (FERM BP-10885) (antibody, mouse IgG2a, V domains shown)
VH: QVQLQQSGPELVKPGASVKISCKASGYAISTSWMNWVKQRPGKGLEWIGRINPGDGNTNYNGKFMAKATLTADKPSSTAYMQLSSLTSEDSAVYFCTRGDRWSGAMDYWGQGTSVTVSS
VL: GNVLTQSPAIMSASPGEKVTMTCRASSSVSSSYLHWYQQKSGASPKLWIYSTSNLASGVPVRFSGSGSGTSYSLTISSVEAEDAATYYCQQYSGFPLTFGAGTKLELK

- binding result [1]: no binding (tested: 5 µg/ml)
- binding result [2]: no binding (tested: 5 µg/ml)
- binding result [3]: binds
- binding result [4]: no binding
- binding result [5]: no binding (tested: 5 µg/ml)
- binding result [6]: no binding (tested: 5 µg/ml)
- binding result [7]: binds
B2: anti-CLDN4 monoclonal antibody KM3900 produced by hybridoma KM3900 (FERM BP-10751) (antibody, V domains shown)
VH: EVQLQQSGPELVKPGASVKISCKASGYTFTDYYMNWVKQSHGKSLEWIGDVVPNNGVPTYNQKFKGKATLTVDKSSSTAYMELRSLTSEDSAVYYCARPHYYYAGRSGAMDYWGQGTSVTVSS
VL: QIVLTQSPAIMSASLGERVTMTCTASSTVSSTYLHWYQQKPGSSPKLWIYSTSNLASGVPARFSGSGSGTSYSLTISSMEAEDAATYYCHQYHRSPPTFGGGTKLEIK
notes: Used as hybridoma culture supernatant (8.6 µg/ml) or purified antibody (5 µg/ml); also called anti-CLDN4 mouse antibody KM3900
